The target of the test is SARS-CoV-2 HR2 protein (heptad repeat 2 of the S2 subunit of the spike protein) (SARS-CoV-2). The test is described as follows: ELISA.

The substance “SARS-CoV-2 HR1 protein (heptad repeat 1 of the S2 subunit of the spike protein) (domain or fragment)” showed an IC50 of 47.8 nM.

Values taken from article PMC10219671.
